The source of these data is article PMC11162469, “Discovery of RXFP2 genetic association in resistant hypertensive men and RXFP2 antagonists for the treatment of resistant hypertension” (Scientific Reports, 2024).

Data set [1] has as its target T1, rat RXFP2 (Rattus norvegicus, UniProt F7EMH8). Briefly: INSL3-stimulated CYP11B2 mRNA expression in H295R stably expressing rat RXFP2. The format is cell-based. Further details: expressed in transfected cells. As to conditions: INSL3 EC80 (3.5 nM), 48 h, qPCR; N = 2. Here is the method:
(§1) RXFP2 antagonists were added to H295R-rRXFP2 before addition of INSL3 EC80 (3.5 nM) for 48 h, whereupon the cells and supernatants were collected. CYP11B1 and CYP11B2 mRNA were determined by qPCR and the RXFP2 blocker potencies were calculated (Fig. 5a). Fifteen antibodies have IC50s < 50 nM, and three of the top antibodies (1F2, 4G6, and 2D4) were selected for evaluation in steroid hormone secretion assays by ELISA.
(§2) Data entered as XY table, with x = [Inhibitor] (nM) and y = CYP11B2 or CYP11B1 fold change.

Data set [2] addresses T1, rat RXFP2. The experiment in a line: INSL3-stimulated CYP11B1 mRNA expression in H295R stably expressing rat RXFP2. Type of data set: cell-based. Set-up: expressed in transfected cells. The note with it: INSL3 EC80 (3.5 nM), 48 h, qPCR; N = 2. Here is the method: as §1, §2
In data set [3] the target is T1, rat RXFP2. The experiment in a line: INSL3-stimulated cAMP assay in HEK293 stably expressing rat RXFP2.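 For all read-outs here: cAMP measured with an HitHunter kit in 384-well plates, 11-point dose–response curves up to 1 µM antibody, four-parameter variable-slope fit.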 The note with it: INSL3 EC80-stimulated cAMP, stable expression, N = 2; for IC50: read-out: HEK293-rat RXFP2 cAMP IC50.
Experimental: (§3) RXFP activity assays were developed in HEK293 with stable expression of RXFP2 or RXFP1.
(§4) The same approach was used to generate stable HEK293 lines expressing human and rat RXFP1 and RXFP2 cDNA. The cAMP assay was conducted using the Eurofin Hithunter kit per manufacturer’s instructions in a 384-well format. All dose curve fitting and EC50 and IC50 determinations were performed in Prism (v9.3.0) using the non-linear fit, variable slope (four parameter) function.
Another data set deals with human RXFP2 (Homo sapiens, UniProt Q8WXD0). Briefly: INSL3-stimulated cAMP assay in HEK293 stably expressing human RXFP2. The note with it: read-out: HEK293-human RXFP2 cAMP IC50; INSL3 EC80-stimulated cAMP, stable expression; N = 2.
Chain of human RXFP2 (Q8WXD0 whole entry): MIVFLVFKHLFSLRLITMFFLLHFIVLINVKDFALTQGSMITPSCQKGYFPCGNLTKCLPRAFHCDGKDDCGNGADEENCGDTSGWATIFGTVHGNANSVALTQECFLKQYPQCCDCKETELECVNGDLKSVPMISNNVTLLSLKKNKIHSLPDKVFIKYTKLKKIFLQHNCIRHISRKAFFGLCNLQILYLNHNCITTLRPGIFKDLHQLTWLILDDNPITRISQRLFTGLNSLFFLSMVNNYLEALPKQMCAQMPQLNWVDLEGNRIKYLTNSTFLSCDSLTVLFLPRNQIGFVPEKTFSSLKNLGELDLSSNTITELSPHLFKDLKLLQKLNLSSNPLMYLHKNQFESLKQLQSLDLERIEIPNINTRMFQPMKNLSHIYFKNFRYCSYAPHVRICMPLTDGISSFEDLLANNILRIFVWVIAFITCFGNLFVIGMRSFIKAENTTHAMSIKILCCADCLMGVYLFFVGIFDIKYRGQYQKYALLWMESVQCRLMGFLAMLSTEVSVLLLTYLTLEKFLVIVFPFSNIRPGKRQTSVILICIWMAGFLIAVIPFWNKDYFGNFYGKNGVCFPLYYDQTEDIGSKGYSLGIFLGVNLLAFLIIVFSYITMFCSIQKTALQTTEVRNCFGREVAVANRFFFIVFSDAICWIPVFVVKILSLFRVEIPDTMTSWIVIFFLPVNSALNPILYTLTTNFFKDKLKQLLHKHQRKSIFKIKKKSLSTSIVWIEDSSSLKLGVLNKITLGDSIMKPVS
Data set [4] is described as follows: Pharmacokinetic study of RXFP2 mAbs in rat. Type of data set: in vivo, Wistar Han rats. As to conditions: for half-life, extrapolated values: Wistar Han rats, 1 mg/kg sc., over 28 days; for AUClast / Cmax / Tmax: male Wistar Han rats, 1 mg/kg s.c., n = 3, mean ± SD. Here is the method:
For the pharmacokinetic study of RXFP2 mAbs in rat, 1G1, 2D4, 4B1, 4G6, 1F2, and 3F3 were prepared in phosphate buffered saline (0.100 mg/mL) with low endotoxin (≤ 0.76 EU/mL). Adult male Wistar Han rats (n = 3/mAb) were administered 1 mg/kg subcutaneously (10 mL/kg). Blood samples (100 µL) were collected in EDTA containing tubes at 0.25, 3, 6 24, 48, 96, 168 (day 7), 336 (day 14), 504 (day 21), and 672 (day 28) hours post dose, immediately centrifuged (6100 rpm), and 50 µL plasma stored at − 80 °C until assay. Rats maintained health throughout the study and were anesthetized (isoflurane to effect) and euthanized on day 28.
Frozen rat plasma samples were thawed and analyzed using a qualified analytical method based on sample dilution, followed by Electrochemiluminescence immunoassay analysis. The lower limit of quantification (LLQ) was 0.1 µg/mL using a 10 µL aliquot of 51-fold diluted rat plasma with a higher limit of quantification (HLQ) of 10 µg/mL. RXFP2 mAbs were captured with LDLa protein and detected with sulfo-tag labeled mouse anti-rat IgG2b. The computer systems that were used to acquire and quantify data included Gyrolab Workstation Version 8.1.5 and Watson LIMS version 7.6.1. Rat pharmacokinetic parameters were calculated by non-compartmental analysis (NCA) analysis using WinNonlin Phoenix 64 (version 8.3). Values are reported in mean ± standard deviation.

T1 sequence (F7EMH8 20-737): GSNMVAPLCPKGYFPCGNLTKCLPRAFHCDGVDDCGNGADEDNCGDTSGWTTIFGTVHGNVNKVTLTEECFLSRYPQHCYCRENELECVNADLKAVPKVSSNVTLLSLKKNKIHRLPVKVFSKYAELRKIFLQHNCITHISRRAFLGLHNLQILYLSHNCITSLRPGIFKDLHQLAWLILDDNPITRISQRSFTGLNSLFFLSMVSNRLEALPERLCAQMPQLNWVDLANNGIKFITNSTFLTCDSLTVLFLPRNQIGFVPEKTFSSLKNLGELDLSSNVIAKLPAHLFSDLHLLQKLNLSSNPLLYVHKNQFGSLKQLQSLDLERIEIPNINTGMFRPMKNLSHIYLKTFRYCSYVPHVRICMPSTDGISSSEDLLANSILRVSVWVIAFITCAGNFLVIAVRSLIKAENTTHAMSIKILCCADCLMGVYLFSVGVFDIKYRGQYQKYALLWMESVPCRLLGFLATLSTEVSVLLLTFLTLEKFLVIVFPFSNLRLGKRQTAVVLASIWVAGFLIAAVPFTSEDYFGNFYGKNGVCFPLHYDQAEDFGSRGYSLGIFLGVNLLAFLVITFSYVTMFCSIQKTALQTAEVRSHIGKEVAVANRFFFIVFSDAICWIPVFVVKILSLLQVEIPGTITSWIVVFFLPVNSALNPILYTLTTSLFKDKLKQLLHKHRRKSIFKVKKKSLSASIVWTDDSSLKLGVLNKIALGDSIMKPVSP
Experimental for human RXFP2: as §3, §4

B1: 3F1: RXFP2 monoclonal antibody from hybridoma, recombinantly expressed in a rat IgG2b backbone (antibody, V domains shown)
VH: QVQLKESGPGLVAPSQSLSITCTVSGFSLTDYGVSWIRQPPGKGLEWLGVIWGGGSTDYNPALKSRLSISKDNSKSQVFLKMNSLQADDTAMYYCVKHEGYYAMDYWGQGTSVTVSS
VL: DIQMTQSPASLSVSVGETVTITCRASENIYSNLAWYQQKQGKSPHLLVYAVTNLADGVPSRFSGSGSGTQYSLKINSLQSEDFGSYYCQHFWGTPYTFGGGTKLEIK
For the molecule B1, the half-maximal inhibitory concentration (IC50) with rat RXFP2 [1] is 0.23 nM; with rat RXFP2 [2], 0.27 nM; with rat RXFP2 [3], 19.9 nM; in the data set with human RXFP2, approximately 589 nM. In the data set with rat RXFP2 [3], the “HEK293-rat RXFP2 cAMP % Max Response” value is reported as 69.7%.

B2: 4H5: RXFP2 monoclonal antibody from hybridoma, recombinantly expressed in a rat IgG2b backbone (antibody, V domains shown)
VH: QVQLKQSGPGLVQPSQSLSITCTVSGFSLTNYGVHWVRQSPGKGLEWLGVIWRDGNTDYNAAFMSRLSITKDNSKSQVFFEMNSLQVDDTAIYYCCRGDGYYAMGYWGQGTSVTVSS
VL: DIQMTQSPASLSVSVGETVTITCRASENIYSNLAWYQQRQGRSPQLLVYAATNLADGVPSRFSGSGSGTQYSLKINSLQSEDFGNYYCQHFWGSPRTFGGGTKLEIK
Regarding B2, the IC50 with rat RXFP2 [1] came out at 0.15 nM; with rat RXFP2 [2], 0.21 nM; in the data set with rat RXFP2 [3], 14.2 nM. For the same molecule, in the data set with rat RXFP2 [3], the “HEK293-rat RXFP2 cAMP % Max Response” value was determined as 89.2%.

B3: 3H1: RXFP2 monoclonal antibody from hybridoma, recombinantly expressed in a rat IgG2b backbone (antibody, V domains shown)
VH: QVQLKETGPGLVAPSQSLSITCTVSGFSLTNYGVNWVRQPPGKGLEWLVVIWSDGSTNYNSALKSRLSISKDNSKSQVFLKMNSLQTDDTAMYYCARQQGYYAMDYWGQGTSVIVSS
VL: DIQMTQSPASLSVSVGETVTITCRASENIYSNLAWYQQKQGKSPQLLVYAVTNLADGVPSRFSGSGSGTQYSLKINSLQSEDFGSYYCQHFWGPPYTFGGGTKLEIK
With B3, the concentration for half-maximal inhibition (IC50) came to 0.16 nM in the data set with rat RXFP2 [1], 0.33 nM with rat RXFP2 [2] and 15.8 nM with rat RXFP2 [3]. Besides, the “HEK293-rat RXFP2 cAMP % Max Response” value with rat RXFP2 [3] was 71.6%.

B4: 4A5: RXFP2 monoclonal antibody from hybridoma, recombinantly expressed in a rat IgG2b backbone (antibody, V domains shown)
VH: DVQLVESGGGLVQPGGSRKLSCAASGFTFSTFGMHWVRQAPEKGLEWVAYISSGSSTIYYADTVKGRFTISRDNPKNTLFLQMTSLRSDDTAMYYCSRSYYGSAHYFDYWGQGTTLTVSS
VL: DIQMTQSPASLSVSVGETVTITCRASENIYSNLAWYQQKQGKSPQLLVYVATNLADGVPSRFSGSGSGTQYSLRINNLQSEDFGNYYCQHFWGTPPTFGGGTKLEIK
With B4, the values for the IC50 with rat RXFP2 [1], in the data set with rat RXFP2 [2] and in the data set with rat RXFP2 [3] were 0.31 nM, 2.85 nM and 23.2 nM, respectively. The “HEK293-rat RXFP2 cAMP % Max Response” value in the data set with rat RXFP2 [3] was determined as 91.0%.

B5: 4B8: RXFP2 monoclonal antibody from hybridoma, recombinantly expressed in a rat IgG2b backbone (antibody, V domains shown)
VH: QVQLKQSGPGLVQPSQSLSITCTVSGFSLSRYGVHWVRQSPGKGLEWLGVIWSGGSTEYNAVFKSRLSISKDNSKSQVFFKMNSLQANDTAIYYCVRADGYYAMEYWGQGTSVTVSS
VL: DIQMTQSPASLSVSVGETVTITCRASENIYSNLAWYQQKQGKSPQLLVYAVTNLADGVPSRFSGSGSGTQYSLKINSLQSEDFGNYYCQHFWGTPYTFGGGTKLEIK
In the case of B5, the IC50 with rat RXFP2 [1] was 0.17 nM; with rat RXFP2 [2] it was 0.23 nM; with rat RXFP2 [3] it was 21.4 nM; with human RXFP2, approximately 116 nM. Also, the “HEK293-rat RXFP2 cAMP % Max Response” value with rat RXFP2 [3] was determined as 86.6%.

B6: 3G4: RXFP2 monoclonal antibody from hybridoma, recombinantly expressed in a rat IgG2b backbone (antibody, V domains shown)
VH: QVQLKESGPGLVAPSQSLSITCTVSGFSLTSYGVSWVRQPPGKGLEWLGVIWGDGSTNYHSALISRLSISKDNSKSQVFLKLNSLQTDDTATYYCAKSLGYYAMDYWGQGTSVTVSS
VL: DIQMTQSPASLSVSVGETVTITCRASENIYSNLVWYQQKQGKSPQLLVYAATNLAEGVPSRFSGSGSGTQYSLKINSLQSEDFGSYYCQHFWGPPWTFGGGTKLEIK
Turning to B6, the values for the IC50 with rat RXFP2 [1], with rat RXFP2 [2] and with rat RXFP2 [3] were 0.2 nM, 0.33 nM and 16.1 nM, respectively. In the data set with rat RXFP2 [3], the “HEK293-rat RXFP2 cAMP % Max Response” value came to 83.3%.

B7: 4H2: RXFP2 monoclonal antibody from hybridoma, recombinantly expressed in a rat IgG2b backbone (antibody, V domains shown)
VH: QVQLRQSGPSLVQPSQSLSITCTVSGFSLTNYGVHWVRQSPGKGLEWLGVIWRGGNTDHNAAFMSRLSITKDNSESQVFFKMNSLQVDDTAIYYCAKAEGYYALDYWGQGTSVTVYS
VL: DIQMTQSPASLSVSVGETVTITCRASENIYSNLAWYQQKQGKSPQLLVYAVTNLADGVPSRFSGSGSGTQYSLKINSLQSEDFGSYYCQHFWGTPWTFGGGTKLEIK
B7: the half-maximal inhibitory concentration (IC50) with rat RXFP2 [1] stood at 0.13 nM; with rat RXFP2 [2], 0.26 nM; in the data set with rat RXFP2 [3] it was 18.9 nM. Moreover, in the data set with rat RXFP2 [3], the “HEK293-rat RXFP2 cAMP % Max Response” value worked out at 85.7%.

B8: 4H1: RXFP2 monoclonal antibody from hybridoma, recombinantly expressed in a rat IgG2b backbone (antibody, V domains shown)
VH: QIQLVQSGPELKKPGETVKISCKTSGYTFTKYPMHWVKQAPGEGLKWMGWINTYSGLPTFADDFKGRFAFSLETSANTADLQINNLKNEDMATYFCAREGKKLSGYFDYWGQGTTLTVSS
VL: DIKMTQSPSSMYASLGERVTITCKASQDINSYLTWFQQKPGQSPKTLIYRANRFVDGVPSRFSGSGSGQDYSLTITSLEYEDMGIYYCLQYDEFPYTFGGGTQLEIK
For B8, the “HEK293-rat RXFP2 cAMP % Max Response” value in the data set with rat RXFP2 [3] is reported as 69.7%. Also, the IC50 was 150 nM in the data set with rat RXFP2 [3] and approximately 218 nM with human RXFP2.

B9: 1G1: RXFP2 monoclonal antibody from hybridoma, recombinantly expressed in a rat IgG2b backbone (antibody, V domains shown)
VH: EVQLQQSGPELVKPGASVKMSCKASGYTFTDYNMHWVKQKPGQGLEWIGYINPYNDGTEYNEKFKGKATLTSDKSSSTAYMDLSSLTSEDSAVYYCARGLWFAMNYWGQGTSVTVSS
VL: DIQMTQSSSSFSVSLGDRVTITCKASEDIYNRLAWYQQKPGNTPRLLISGATILETGVPSRFSGSGSGKDYTLSIISLQTEDVATYYCQQYWIIPPTFGGGTKLEIK
With B9, in data set [4], the “half-life, extrapolated values” was not below 264 h; the AUClast was 4490 ± 467 µg·h/mL; the Cmax was 9820 ± 766 ng/mL; the Tmax is reported as 120 ± 42 h. The “estimated dose to achieve tenfold higher IC50 HEK-rRXFP2 cAMP activity for approximately 28 days in rat” value in data set [4] (from trough concentration, dose-linearity assumed) is “approximately 10 mg/kg”. In the data set with rat RXFP2 [1], this molecule came in with a concentration for half-maximal inhibition (IC50) of 0.17 nM. Besides, inhibition with rat RXFP2 [2] was half-maximal at 0.27 nM (IC50). Also, in the data set with rat RXFP2 [3], the “HEK293-rat RXFP2 cAMP % Max Response” value came out at 87.2% and the IC50 came out at 28 nM.

B10: 3F3: RXFP2 monoclonal antibody from hybridoma, recombinantly expressed in a rat IgG2b backbone (antibody, V domains shown)
VH: QVQLQQPGSVLVRPGASVKLSCKASGYIFTSYWMHWVKQRPGQGLEWIGEIYPNSGRTSYNEKFKGKATVTVDTSSSTAYVDLSSLTSEDSAVYYCASGGHWFAYWGQGTLVTVSA
VL: DIQMTQSSSSFSVSLGDRVTITCKASEDIYNRLAWYQQKPGNAPRLLISGATSLEAGVPSRFSGSGSGKDYTLSITSLQTEDVSTYYCQQYWITPYTFGGGTKLEIK
For B10, in data set [4], the “half-life, extrapolated values” is not below 264 h; the AUClast was found to be 987 ± 200 µg·h/mL; the Cmax turned out to be 2350 ± 858 ng/mL; the time of peak concentration (Tmax) came to 168 ± 0 h. The molecule further registered an IC50 in the data set with rat RXFP2 [1] of 0.51 nM. The same molecule registered an IC50 with rat RXFP2 [2] of 3.85 nM. Moreover, in the data set with rat RXFP2 [3], the “HEK293-rat RXFP2 cAMP % Max Response” value is reported as 78.5% and the IC50 was 37 nM.
